Assay results taken from patent US20030091557A1 (Human Genome Sciences, published 2003).
Bridges are numbered along the chain shown (N, C = ends).

Biological target: recombinant human ACE-2 (human, UniProt Q9BYF1 18-740, limits assumed)
Assay: cell-based or functional assay

Sequence of recombinant human ACE-2 (Q9BYF1 18-740 limits assumed): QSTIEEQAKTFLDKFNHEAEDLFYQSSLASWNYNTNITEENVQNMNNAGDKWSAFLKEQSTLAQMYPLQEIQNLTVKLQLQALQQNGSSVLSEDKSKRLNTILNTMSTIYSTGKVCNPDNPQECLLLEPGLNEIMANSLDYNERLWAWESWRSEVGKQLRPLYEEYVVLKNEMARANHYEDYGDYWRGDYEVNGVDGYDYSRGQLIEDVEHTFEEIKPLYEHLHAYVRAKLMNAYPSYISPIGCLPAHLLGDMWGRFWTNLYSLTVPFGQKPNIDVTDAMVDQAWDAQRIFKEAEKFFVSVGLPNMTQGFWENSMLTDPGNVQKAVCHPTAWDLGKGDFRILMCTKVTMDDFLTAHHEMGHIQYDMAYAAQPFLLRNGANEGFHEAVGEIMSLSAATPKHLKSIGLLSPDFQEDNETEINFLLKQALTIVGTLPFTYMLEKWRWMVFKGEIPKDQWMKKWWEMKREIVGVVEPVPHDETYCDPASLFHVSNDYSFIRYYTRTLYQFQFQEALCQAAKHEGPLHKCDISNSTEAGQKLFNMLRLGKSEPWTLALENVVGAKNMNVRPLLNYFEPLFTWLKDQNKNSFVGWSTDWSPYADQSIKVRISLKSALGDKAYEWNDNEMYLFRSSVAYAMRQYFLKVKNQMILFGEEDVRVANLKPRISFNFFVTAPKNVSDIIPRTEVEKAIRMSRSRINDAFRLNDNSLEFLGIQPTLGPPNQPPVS

| Binder | IC50 µM (ACE-2 cleavage of M-2195, fluorometric) [µM] |
| --- | --- |
| Ac-GDRYLCLPQRDKPWKFCNWFDPEGGG-NH2 (disulfide 6-17 (inferred); also: oxidized) [DX-599] | 0.14 |
| Ac-GSRGFCRDSSCSFPAPGEGGG-NH2 (disulfide 6-11 (inferred); also: oxidized) [DX-525] | 1 |
| Ac-AGWEVCHWAPMMCKHGGTEGGG-NH2 (disulfide 6-13 (inferred); also: oxidized) [DX-529] | 0.4 |
| Ac-GSRIGCRDSRCNWWAPGEGGG-NH2 (disulfide 6-11 (inferred); also: oxidized) [DX-524] | 0.6 |
| Ac-GDRLHCKPQRQSPWMKCQHLDPEGGG-NH2 (disulfide 6-17 (inferred)) [DX-512] | 0.06 |

Second part, the binder after the results:

| IC50 µM (ACE-2 cleavage of M-2195, fluorometric) [µM] | Binder |
| --- | --- |
| 0.09 | Ac-GDLHACRPVRGDPWWACTLGDPEGGG-NH2 (disulfide 6-17 (inferred); also: oxidized) [DX-513] |
| 0.5 | Ac-AGSDWCGTWNNPCFHQGTEGGG-NH2 (disulfide 6-13 (inferred); also: oxidized) [DX-531] |
| 30 | Ac-AGQKECKFGYPHCLPWGTEGGG-NH2 (disulfide 6-13 (inferred); also: oxidized) [DX-530] |
| 0.12 | Ac-GDFSPCKALRHSPWWVCPSGDPEGGG-NH2 (disulfide 6-17 (inferred)) [DX-602] |
| 0.068 | Ac-GDGFTCSPIRMFPWFRCDLGDPEGGG-NH2 (disulfide 6-17 (inferred)) [DX-601] |
